# From patent publication US20180037644A1 (Pfizer, published 2018)
# Changes are numbered by the printed parent chain.
# T1: human IL-33 (mm2) (human, UniProt O95760 112-270)
# T1 chain: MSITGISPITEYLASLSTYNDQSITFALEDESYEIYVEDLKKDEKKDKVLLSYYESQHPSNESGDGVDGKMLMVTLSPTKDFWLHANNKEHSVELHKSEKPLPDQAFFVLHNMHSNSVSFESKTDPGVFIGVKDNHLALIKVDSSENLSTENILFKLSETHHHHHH
# T2: cynomolgus monkey IL-33 (cys mut) (cynomolgus monkey)
# T2 chain: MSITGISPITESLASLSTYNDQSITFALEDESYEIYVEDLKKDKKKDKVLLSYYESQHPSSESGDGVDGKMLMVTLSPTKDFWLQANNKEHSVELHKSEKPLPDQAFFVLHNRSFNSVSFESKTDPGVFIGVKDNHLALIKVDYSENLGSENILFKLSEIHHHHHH
# B1: 9B3-563 (antibody, human IgG1, kappa, V domains shown)
# VH: EVQLVETGGGLVQPGRSLKLSCVASGFTFSNYWMYWIRQAPGMGLEWVSSINNDGGNTYYLDSVKGRFTISRNNAENTVYLQMNSLRSEDTATYYCAKGHYYYSSYSFAYWGQGTLVTVSS
# VL: DIQMTQSPSVLSASVGDRVTLSCKASHNINKHLDWYQQKVGEAPKLLIYFTNNLQTGIPSRFSGSGSGTDYTLTISSLQPEDVATYFCFQYNSGWTFGQGTKVEIKR
# B2: 9B3-13 (antibody, human IgG1, kappa, V domains shown)
# VH: B1 VH with K98R, S104N, Y110H
# VL: B1 VL
# B3: 9B3-31v2 (antibody, human IgG1, kappa, V domains shown)
# VH: B1 VH with Y110F
# VL: B1 VL
# B4: 9B3-5 (antibody, human IgG1, kappa, V domains shown)
# VH: B1 VH with Y102S, S104T, A109G
# VL: B1 VL
# B5: 9B3-3 (antibody, human IgG1, kappa, V domains shown)
# VH: B1 VH with Y102S, F108I, A109D
# VL: B1 VL
# B6: 9B3-2B (antibody, human IgG1, kappa, V domains shown)
# VH: B1 VH with A97V, Y102S, F108I, A109D
# VL: B1 VL
# B7: 9B3-7 (antibody, human IgG1, kappa, V domains shown)
# VH: B1 VH with H100R
# VL: B1 VL
# B8: 9B3-15 (antibody, human IgG1, kappa, V domains shown)
# VH: B1 VH with Y102S, Y110N
# VL: B1 VL
# B9: 9B3-79 (antibody, human IgG1, kappa, V domains shown)
# VH: B1 VH with K98R, S104T
# VL: B1 VL
# B10: 9B3-2A (antibody, human IgG1, kappa, V domains shown)
# VH: B1 VH with Y102S, A109G
# VL: B1 VL
# B11: 9B3-36 (antibody, human IgG1, kappa, V domains shown)
# VH: B1 VH with S104T
# VL: B1 VL
# B12: 9B3-1 (antibody, human IgG1, kappa, V domains shown)
# VH: B1 VH with F108L, A109G
# VL: B1 VL
# B13: IL33-158 (antibody, human IgG1, kappa)
# heavy: EVQLVESGGGLVQPGGSLRLSCAASGFTFSSYWMYWVRQAPGKGLEWVAAITPNAGEDYYPESVKGRFTISRDNAKNSLYLQMNSLRAEDTAVYYCARGHYYYTSYSLGYWGQGTLVTVSSASTKGPSVFPLAPSSKSTSGGTAALGCLVKDYFPEPVTVSWNSGALTSGVHTFPAVLQSSGLYSLSSVVTVPSSSLGTQTYICNVNHKPSNTKVDKKVEPKSCDKTHTCPPCPAPEAAGAPSVFLFPPKPKDTLMISRTPEVTCVVVDVSHEDPEVKFNWYVDGVEVHNAKTKPREEQYNSTYRVVSVLTVLHQDWLNGKEYKCKVSNKALPAPIEKTISKAKGQPREPQVYTLPPSREEMTKNQVSLTCLVKGFYPSDIAVEWESNGQPENNYKTTPPVLDSDGSFFLYSKLTVDKSRWQQGNVFSCSVMHEALHNHYTQKSLSLSPGK
# light: DIQMTQSPSSLSASVGDRVTITCKASQNINKHLDWYQQKPGKAPKLLIYFTNNLQTGVPSRFSGSGSGTDFTLTISSLQPEDFATYYCFQYNQGWTFGGGTKVEIKRTVAAPSVFIFPPSDEQLKSGTASVVCLLNNFYPREAKVQWKVDNALQSGNSQESVTEQDSKDSTYSLSSTLTLSKADYEKHKVYACEVTHQGLSSPVTKSFNRGEC
# B14: IL33-167 (antibody, human IgG1, kappa)
# heavy: B13 heavy with A50S, E62D
# light: B13 light with Q93N
# B15: IL33-153 (antibody, human IgG1, kappa, V domains shown)
# VH: EVQLVESGGGLVQPGGSLRLSCAASGFTFSSYWMYWVRQAPGKGLEWVASITPNAGEDYYPDSVKGRFTISRDNAKNSLYLQMNSLRAEDTAVYYCARGHYYYTSYSLGYWGQGTLVTVSS
# VL: DIQMTQSPSSLSASVGDRVTITCKASQNINKHLDWYQQKPGKAPKLLIYFTNNLQTGVPSRFSGSGSGTDFTLTISSLQPEDFATYYCFQYNQGWTFGGGTKVEIKR
# B16: IL33-170 (antibody, human IgG1, kappa, V domains shown)
# VH: B15 VH with S50A, A55G, D62E
# VL: B15 VL with Q93N
# B17: IL33-187 (antibody, human IgG1, kappa, V domains shown)
# VH: B15 VH with S50A, D58T
# VL: B15 VL
# B18: IL33-154 (antibody, human IgG1, kappa, V domains shown)
# VH: B15 VH with D62E
# VL: B15 VL
# B19: IL33-175 (antibody, human IgG1, kappa, V domains shown)
# VH: B15 VH with S50A, D58T, D62E
# VL: B15 VL with Q93N
# B20: IL33-171 (antibody, human IgG1, kappa, V domains shown)
# VH: B15 VH with S50A
# VL: B15 VL with Q93N
# B21: IL33-169 (antibody, human IgG1, kappa, V domains shown)
# VH: B15 VH with S50A, A55G
# VL: B15 VL with Q93N
# B22: IL33-172 (antibody, human IgG1, kappa, V domains shown)
# VH: B15 VH with S50A, D62E
# VL: B15 VL with Q93N
# B23: IL33-186 (antibody, human IgG1, kappa, V domains shown)
# VH: B15 VH with S50A, A55G, D58T, D62E
# VL: B15 VL
# B24: IL33-157 (antibody, human IgG1, kappa, V domains shown)
# VH: B15 VH with S50A
# VL: B15 VL
# B25: IL33-156 (antibody, human IgG1, kappa, V domains shown)
# VH: B15 VH with S50A, A55G, D62E
# VL: B15 VL
# B26: IL33-155 (antibody, human IgG1, kappa, V domains shown)
# VH: B15 VH with S50A, A55G
# VL: B15 VL
# B27: IL33-188 (antibody, human IgG1, kappa, V domains shown)
# VH: B15 VH with S50A, D58T, D62E
# VL: B15 VL
# B28: IL33-168 (antibody, human IgG1, kappa, V domains shown)
# VH: B15 VH with D62E
# VL: B15 VL with Q93N
# Molecular target: T1, human IL-33 (mm2)
# Assay: cell-based or functional assay
row,"estimated IC50, HEK293 ST2 NFkB [nM]",Binder
1,0.177,B1
2,0.175,B2
3,0.202,B3
4,0.106,B4
5,0.048,B5
6,0.048,B6
7,0.069,B7
8,0.101,B8
9,0.063,B9
10,0.056,B10
11,0.251,B11
12,0.039,B12

# Molecular target: T1, human IL-33 (mm2)
# Assay: cell-based or functional assay
# Remark: another data set of the same source
"IC50, HEK293 ST2 NFkB [nM]","IC50, PBMC mm2 [nM]","IC50, whole blood mm2 [nM]",Binder
0.131,0.004,0.007,B13
0.049,0.001,0.008,B14
0.087,,0.014,B15
0.176,,0.005,B16
0.15,,0.006,B17
0.188,0.007,0.01,B18
0.059,0.004,0.006,B19
0.145,,0.012,B20
0.071,,0.009,B21
0.201,,0.012,B22
0.109,,0.012,B23
0.118,,0.016,B24
0.116,0.004,0.004,B25
0.171,,0.025,B26
0.147,,0.017,B27
0.109,,0.014,B28

# Molecular target: T2, cynomolgus monkey IL-33 (cys mut)
# Assay: cell-based or functional assay
row,"IC50, HEK293 ST2 NFkB cyno IL-33 [nM]",Binder
1,0.125,B13
2,0.062,B14
3,0.122,B15
4,0.218,B16
5,0.282,B17
6,0.133,B18
7,0.086,B19
8,0.216,B20
9,0.176,B21
10,0.222,B22
11,0.144,B23
12,0.161,B24
13,0.087,B25
14,0.239,B26
15,0.351,B27
16,0.264,B28

# Molecular target: T1, human IL-33 (mm2)
# Assay: BIAcore, IgG captured by anti-human Fc, 125 nM IL-33 (mm2)
# Protocol: Binding to human and cynomolgus monkey IL-33 was measured by surface plasmon resonance using a BIAcore T200 instrument. An anti-human Fc antibody was immobilized on a CM5 chip, and anti-IL-33 antibodies were captured.
row,koff [s⁻¹],Binder
1,0.00109,B1
2,0.000326,B2
3,0.000706,B3
4,0.000325,B4
5,0.000424,B5
6,0.000506,B6
7,0.000589,B7
8,0.000479,B8
9,0.000543,B9
10,0.000437,B10
11,0.000289,B11
12,0.000569,B12
